Here are results for 2 molecules from US20190367612A1 (Daiichi Sankyo, published 2019).

Assay [1] deals with T1, human GPRC5D (human, UniProt Q9NZD1 1-345).
T1 construct: whole, on cells; also called hGPRC5D; G-protein coupled receptor family C group 5 member D
Put plainly: flow cytometry, KMS-34 cells.

The target in assay [2] is T2, human GPRC5D amino-terminal peptide …(Biotin)-NH2, lacking an intramolecular disulfide bond (human, biotinylated carboxy terminus, C-terminal amide; no intramolecularly formed disulfide bond).
T2 construct: Sigma-Aldrich synthetic peptide; also called amino-terminal peptide of human GPRC5D (disulfide bond absent)
T2 peptide: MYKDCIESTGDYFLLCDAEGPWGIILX
Description: ELISA, immobilised biotinylated peptide without disulfide bond. The source says:
(§1) Epitopes bound by the obtained rat anti-GPRC5D antibodies (2A4, 2B1, and 7B4) were identified using a human GPRC5D amino-terminal peptide […](Biotin)-NH₂ (Sigma-Aldrich Corp.) (SEQ ID NO: 1 of the Sequence Listing; FIG. 2) having a biotinylated carboxy-terminal peptide and lacking an intramolecularly formed disulfide bond, and a human GPRC5D amino-terminal peptide […]-K(Biotin)-NH₂ (Peptide Institute, Inc.) (SEQ ID NO: 2 of the Sequence Listing; FIG. 3) having a lysine-containing biotinylated carboxy terminus and having an intramolecularly formed disulfide bond. Each peptide diluted with PBS was added to Nunc Immobilizer (Thermo Fisher Scientific Inc.), and the plate was left standing at room temperature for 1 hour. After washing three times with PBST, […] containing 1% BSA was added thereto, and the plate was left standing at room temperature for 1 hour. After washing three times with PBST, each rat anti-GPRC5D antibody (2A4, 2B1, and 7B4) prepared in Example 1)-7 and diluted to 0.1 ng/mL to 1 μg/mL with PBS was added thereto, and the plate was left standing at room temperature for 1 hour. […] After washing three times with PBST, SuperSignal™ ELISA Pico Chemiluminescent Substrate (Thermo Fisher Scientific Inc.) was added thereto, and the luminescence was measured using a plate reader (ENVISION; PerkinElmer, Inc.).

The target in assay [3] is T1, human GPRC5D. Description: flow cytometry, KHM-1B cells. The procedure: Human multiple myeloma cell line KHM-1B cells (JCRB Cell Bank) expressing GPRC5D were adjusted to a concentration of 5×10⁶ cells/mL with PBS containing 5% FBS, inoculated in an amount of 100 μL/well to a 96-well U-bottomed microplate, and centrifuged to remove a supernatant. Each rat anti-GPRC5D antibody (2A4, 2B1, and 7B4) adjusted to 0.32 ng/mL to 10 μg/mL in Example 1)-7 was added thereto in an amount of 100 μL/well, and the plate was left standing at 4° C. for 1 hour. The cells were washed twice with PBS containing 5% FBS. Then, PE Goat Anti-Rat Ab (Becton, Dickinson and Company) diluted 100-fold with PBS containing 5% FBS was added thereto at a concentration of 100 μL/well, and the plate was left standing at 4° C. for 1 hour. The cells were washed twice with PBS containing 5% FBS and then resuspended in PBS containing 5% FBS, followed by detection using a flow cytometer (FACSCanto™ II; Becton, Dickinson and Company). The data was analyzed using Flowjo (Tree Star, Inc.). The PE fluorescence intensity of the cell fraction was plotted to a histogram, and the mean fluorescence intensity (MFI) was calculated.

Assay [4] deals with T3, human GPRC5D amino-terminal peptide MYKDCIESTGDYFLLCDAEGPWGIILE-K(Biotin)-NH2, having an intramolecular … (human, C-terminal lysine carrying biotin, C-terminal amide; intramolecularly formed disulfide bond).
T3 construct: Peptide Institute synthetic peptide; also called amino-terminal peptide of biotinylated human GPRC5D (disulfide bond present)
T3 peptide: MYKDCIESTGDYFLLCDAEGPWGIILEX
Put plainly: ELISA, immobilised biotinylated peptide with disulfide bond.
Source text: as §1

Assay [5] concerns the target T1, human GPRC5D. Put plainly: flow cytometry on KHM-1B cells (human GPRC5D), PE anti-human IgG Fc detection, rMFI = MFI minus isotype control. The procedure: Human multiple myeloma cell line KHM-1B cells expressing GPRC5D were adjusted to a concentration of 2×10⁶ cells/mL with PBS containing 5% FBS, inoculated in an amount of 100 μL/well to a 96-well U-bottomed microplate, and centrifuged to remove the supernatant. The culture supernatant of each human anti-GPRC5D antibody (full-length IgG form containing C2037, C3048, C3015, or C3022) obtained in Example 10)-5 or Human IgG isotype control antibody (Calbiochem/Merck Millipore Corp.) adjusted to 14 ng/mL to 30 μg/mL was added thereto in an amount of 100 μL/well, and the plate was left standing at 4° C. for 1 hour. The cells were washed twice with PBS containing 5% FBS. Then, R-Phycoerythrin AffiniPure F(ab′)2 Fragment Goat Anti-Human IgG, Fcγ Fragment Specific (Jackson ImmunoResearch Laboratories, Inc.) diluted 100-fold with PBS containing 5% FBS was added thereto in an amount of 100 μL/well, and the plate was left standing at 4° C. for 1 hour. The cells were washed twice with PBS containing 5% FBS and then resuspended in PBS containing 5% FBS, followed by detection using a flow cytometer (FACSCanto™ II; Becton, Dickinson and Company). The data was analyzed using Flowjo (Tree Star, Inc.). The PE fluorescence intensity of the cell fraction was plotted to a histogram, and the mean fluorescence intensity (MFI) was calculated. The MFI value of the control antibody was subtracted from the MFI value of the GPRC5D antibody to calculate a relative value of MFI (rMFI).

Assay [6] concerns the target T3, human GPRC5D amino-terminal peptide …. Put plainly: ELISA, chemiluminescence: biotinylated amino-terminal peptide of human GPRC5D on NeutrAvidin, culture supernatant of IgG-expressing cells (one concentration, not given), HRP anti-human Fab detection. How it is done:
(§2) NeutrAvidin diluted to 1 μg/mL with PBS was added in an amount of 50 μL/well to 96-well Maxi-sorp plate, and the plate was left standing overnight at 4° C. for immobilization. After washing three times with an ELISA buffer, the amino-terminal peptide of the biotinylated human or cynomolgus monkey GPRC5D (used in Example 10)-1) diluted to 1 μg/mL with PBS was added thereto, and the plate was shaken at room temperature for 1 hour. After washing three times with an ELISA buffer, the plate was blocked with Blocker Casein and washed three times with an ELISA buffer. Then, the culture solution of the IgG-expressing FreeStyle 293F cells was added to the plate and reacted at room temperature for 2 hours. After washing three times with an ELISA buffer, a horseradish peroxidase (HRP)-labeled anti-human Fab antibody (Jackson ImmunoResearch Laboratories, Inc.) diluted 2500-fold with ELISA buffer was added thereto in an amount of 50 μL/well and reacted at room temperature for 1 hour. After washing five times with an ELISA buffer, SuperSignal Pico ELISA Chemiluminescent substrate was added. After 10 minutes, the chemiluminescence was measured using a plate reader.

The target in assay [7] is T4, amino-terminal peptide of cynomolgus monkey GPRC5D …(Biotin)-NH2 (cynomolgus monkey, C-terminal lysine carrying biotin, C-terminal amide).
T4 construct: also called amino-terminal peptide of biotinylated cynomolgus monkey GPRC5D
T4 peptide: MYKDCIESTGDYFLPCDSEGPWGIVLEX
Put plainly: ELISA, biotinylated peptide on NeutrAvidin. How it is done:
as §2

B1: rat anti-GPRC5D antibody 2B1 (antibody, V domains shown)
VH: QVTLKESGPGILQPSQTLSLTCTFSGFSLNTYDMGVGWIRQPSGKGLEWLANIWWDDDKYYNPSLRNRLTISKDTSNNQAFLKITNVDTADTATYYCARIETVRVSRKGFAHWGQGTLVTVSS
VL: ETVMTQSPTSMSTSIGERVTLNCKASQSVGINVDWYQQTPGQSPKLLIYGASNRHTGVPDRFTGSGFGRDFTLTISNVEAEDLAVYYCLQHGSIPPTFGGGTKLELK
notes: Rat IgG2b, kappa chain
On to B1, for which the Kd in assay [1] turned out to be 0.0127 µM; in assay [3], 0.0148 µM. Also, the results for the “MFI (max)” value in assay [1] and in assay [3] were 3160 and 2390, respectively. Besides, the binding result in assay [2] and in assay [4] was “binds” throughout.

B2: IgG form of the human antibody C3015 (antibody, V domains shown)
VH: EVQLVESGGGVVQPGRSLRLSCAASGFTFRNYAMSWVRQAPGKGLEWVSGISGTGGSTYYADSVKGRFTISRDNSKDTLYLQLNSLRAEDTAVYYCAKSRSMSINYGMDVWGQGTTVTVSS
VL: SYELTQPPSVSVSPGQTVSITCSGDNLGDRYASWYQQKPGQSPVQVIYQDTKRPSGIPERFSGSNSGNTATLTISGTQAMDEADYYCQAWDSNTVVFGGGTKLTVLG
notes: Human IgG1; also called C3015 IgG form; full-length IgG form containing C3015
In the case of B2, the binding result in assay [5], in assay [6] and in assay [7] was “binds” in each case.
